According to US20190248907A1 (Merck KGaA, published 2019):
Values belong to the binder of their own block, whether it stands above or below them.

Target: T1, human c-MET ECD (human, UniProt P08581 25-932)
T1 construct: also called recombinant human c-MET ECD; human c-MET ECD-His
Assay: not stated (summary of antibody properties, FIG. 6)

T1 sequence (P08581 25-932 limits assumed): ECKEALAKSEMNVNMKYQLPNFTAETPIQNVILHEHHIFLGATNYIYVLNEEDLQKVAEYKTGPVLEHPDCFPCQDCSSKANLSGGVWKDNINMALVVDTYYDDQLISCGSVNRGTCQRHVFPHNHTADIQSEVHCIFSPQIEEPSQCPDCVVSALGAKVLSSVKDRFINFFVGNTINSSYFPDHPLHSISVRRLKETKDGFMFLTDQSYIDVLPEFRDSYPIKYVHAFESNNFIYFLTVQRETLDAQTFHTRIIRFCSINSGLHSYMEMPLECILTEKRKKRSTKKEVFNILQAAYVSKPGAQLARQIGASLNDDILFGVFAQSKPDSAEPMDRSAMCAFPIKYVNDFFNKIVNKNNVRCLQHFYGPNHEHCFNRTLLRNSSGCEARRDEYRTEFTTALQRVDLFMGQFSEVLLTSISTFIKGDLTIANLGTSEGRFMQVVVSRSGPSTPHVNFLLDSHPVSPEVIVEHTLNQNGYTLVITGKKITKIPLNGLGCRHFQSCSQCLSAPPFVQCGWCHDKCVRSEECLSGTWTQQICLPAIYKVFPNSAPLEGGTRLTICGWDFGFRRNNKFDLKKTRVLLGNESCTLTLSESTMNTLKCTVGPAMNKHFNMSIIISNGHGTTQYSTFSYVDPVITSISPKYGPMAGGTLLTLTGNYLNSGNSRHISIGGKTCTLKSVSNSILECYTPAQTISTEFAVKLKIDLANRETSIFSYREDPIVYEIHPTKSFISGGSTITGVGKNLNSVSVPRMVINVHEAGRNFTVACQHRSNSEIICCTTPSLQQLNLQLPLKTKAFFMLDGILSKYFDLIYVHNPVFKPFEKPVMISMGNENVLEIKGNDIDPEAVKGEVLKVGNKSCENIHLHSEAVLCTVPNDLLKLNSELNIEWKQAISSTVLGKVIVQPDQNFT

- Kd: ~0.3 nM
B1: oa CS06 (antibody, V domains shown)
VH: QVQLQQSGAEVKKPGSSAKVSCKASGGTFSSNAISWVRQAPGQGLEWMGGIIPIFGTAIYAQKFQGRVTITADESTSTAYMELSSLRSEDTAVYYCARDQRGYYYYYYYGMDVWGQGTTVTVSS
VL: QLVLTQSPSVSVAPGKTARITCGGNNIRNVGVHWYQKKPGQAPILVVYDDDDRPSGVPERFSGSNSGNTATLTISRVEAGDEADYYCQVWDSATDQRVFGGGTKLTVL
notes: also called one-armed CS06; anti-c-MET clone CS06 (monovalent one-armed format); copies: 1 + 1

- Kd: ~0.0196 nM
B2: biparatopic bispecific heterodimeric immunoglobulin molecule comprising Fab fragments CS06 and B10v5 (bispecific antibody)
chain 1: QLVLTQSPSVSVAPGKTARITCGGNNIRNVGVHWYQKKPGQAPILVVYDDDDRPSGVPERFSGSNSGNTATLTISRVEAGDEADYYCQVWDSATDQRVFGGGTKLTVLGQPKAG
chain 2: B1 VH
chain 3: EPVLTQPPSVSVAPGETATIPCGGDSLGSKIVHWYQQRPGQAPLLVVYDDAARPSGIPERFSGSKSGTTATLTISSVEAGDEADYFCQVYDYHSDVEVFGGGTKLTVLGQPKAA
chain 4: not shown

- Kd: ~0.134 nM
B3: CS06 IgG1 (antibody, V domains shown)
VH: B1 VH
VL: QLVLTQSPSVSVAPGKTARITCGGNNIRNVGVHWYQKKPGQAPILVVYDDDDRPSGVPERFSGSNSGNTATLTISRVEAGDEADYYCQVWDSATDQRVFGGGTKLTVLG
notes: Bivalent IgG1; also called anti-c-MET clone CS06
